Assay results published in US20220153875A1 (Chugai, published 2022).
Changes are numbered by the printed parent chain.

How the values were obtained:
[1] = biological target: T1, human IL-6 receptor (hIL-6R) (human, UniProt P08887 20-357, limits assumed); assay: SPR (Biacore T200), antibody captured on ProA/G on CM4 chip, hIL-6R as analyte, single cycle kinetics, 25 C, in the presence of 100 µM MTA; 100 µM MTA in the antigen buffer
T1 sequence: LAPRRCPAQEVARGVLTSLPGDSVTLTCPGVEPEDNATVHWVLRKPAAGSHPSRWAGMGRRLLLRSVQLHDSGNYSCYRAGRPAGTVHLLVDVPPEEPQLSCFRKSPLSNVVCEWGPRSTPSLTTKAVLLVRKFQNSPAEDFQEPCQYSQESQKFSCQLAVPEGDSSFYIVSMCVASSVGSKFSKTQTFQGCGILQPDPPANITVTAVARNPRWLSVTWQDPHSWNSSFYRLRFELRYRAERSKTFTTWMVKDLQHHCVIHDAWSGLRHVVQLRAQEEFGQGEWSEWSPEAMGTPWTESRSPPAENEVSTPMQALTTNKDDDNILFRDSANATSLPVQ
Experimental: (§1) The effects of MTA and adenosine on the antigen-antibody reaction between the antibodies purified and produced in Example (4-5) and the target antigens were evaluated using Biacore T200 (GE Healthcare). 20 mM ACES, 150 mM NaCl, 0.05% (w/v) Tween20, pH 7.4 was used as the running buffer, and the measurement was performed at 25° C. Changes in the amount of binding between antigens and antibodies were observed by immobilizing ProA/G on the sensor chip CM4 by amine coupling, immobilizing the antibody on it, and then interacting with various antigens as analytes. The running buffer and a buffer prepared by adding either MTA or adenosine to the running buffer at a final concentration of 100 μM were used to dilute the antigens. In addition, the antigens were prepared in concentration series of several steps, and the dissociation constant KD of each clone was calculated by single cycle kinetics analysis from the sensorgram for each antigen concentration. Biacore T200 Evaluation Software (GE Healthcare) was used to calculate the parameters.

human IL-6 (hIL-6) = human IL-6 (hIL-6) (human); assay: SPR (Biacore T200), antibody captured on ProA/G on CM4 chip, hIL-6 as analyte, single cycle kinetics, 25 C, in the presence of 100 µM MTA; 100 µM MTA in the antigen buffer
Experimental: as §1

human IgA (hIgA) = biological target: T2, human IgA (hIgA) (human); assay: SPR (Biacore T200), antibody captured on ProA/G on CM4 chip, hIgA as analyte, single cycle kinetics, 25 C, in the presence of 100 µM MTA; 100 µM MTA in the antigen buffer
T2 chain: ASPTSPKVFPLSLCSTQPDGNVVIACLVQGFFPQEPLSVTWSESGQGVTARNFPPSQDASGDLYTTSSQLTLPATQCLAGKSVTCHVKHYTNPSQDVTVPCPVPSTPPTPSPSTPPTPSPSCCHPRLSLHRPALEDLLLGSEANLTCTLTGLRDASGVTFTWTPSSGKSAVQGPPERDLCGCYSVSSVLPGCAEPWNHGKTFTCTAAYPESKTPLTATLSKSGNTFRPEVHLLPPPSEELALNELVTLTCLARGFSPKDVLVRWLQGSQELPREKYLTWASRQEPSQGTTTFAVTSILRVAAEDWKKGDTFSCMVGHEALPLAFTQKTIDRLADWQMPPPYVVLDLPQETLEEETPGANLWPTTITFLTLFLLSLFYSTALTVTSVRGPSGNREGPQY

Chain of human IL-6 (hIL-6) (human) (P05231 30-212): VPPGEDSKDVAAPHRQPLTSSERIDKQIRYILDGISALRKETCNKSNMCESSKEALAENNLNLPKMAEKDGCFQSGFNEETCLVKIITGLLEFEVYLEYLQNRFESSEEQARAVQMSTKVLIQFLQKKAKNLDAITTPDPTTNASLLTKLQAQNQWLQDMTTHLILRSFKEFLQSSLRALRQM

B1: 6RS2T007H-F760mnN17/6RS2T007L-KT0 (antibody, human IgG1, kappa, N297A, V domains shown)
VH: QVQLVQSGAEVKKPGASVKVSCKVSNIVLMQHTYGWVRQPPGKGLEWIGIIGGDGHAWYPRWVKGRFTISKDNSKNQVVLTMTNMDPVDTATYYCARGGKDGFTNAWDPWGQGTLVTVSS
VL: DIQLTQSPSSLSASVGDRVTITCQSSQSVFNNNGLSWYQQKPGQPPKLLIYDASTLASGVPSRFSGSGSGTDFTLTINSLEAEDAATYYCHGSQATQIWWDNAFGGGTEVVVKR
notes: From the MTA-concentrated S02 library (humanized SMB0002 template); also called MTA-dependent anti-hIL-6R antibody
Kd [1]: 1010 nM

B2: 6LS2T001H-F760mnN17/6LS2T001L-KT0 (antibody, human IgG1, kappa, N297A, V domains shown)
VH: QVQLVQSGAEVKKPGASVKVSCKVSDIDAMQYTYGWVRQPPGKGLEWIGIIGEGGEVWYPYWVKGRFTISKDNSKNQVVLTMTNMDPVDTATYYCARGYHEGFVNAWDPWGQGTLVTVSS
VL: B1 VL with Q3K, F30L, N31W, G34Y, A95F, T96E, I98W, W99V, W100F
notes: From the MTA-concentrated S02 library; Target antigen is hIL-6
Kd (human IL-6 (hIL-6)): 126 nM

B3: IAS2T001H-F760mnN17/IAS2T001L-KT0 (antibody, human IgG1, kappa, N297A, V domains shown)
VH: QVQLVQSGAEVKKPGASVKVSCKVSDIQDEQYAFGWVRQPPGKGLEWIGIIGATGHVWYPQWVKGRFTISKDNSKNQVVLTMTNMDPVDTATYYCARGHKQHFTNAFDPWGQGTLVTVSS
VL: DIQLTQSPSSLSASVGDRVTITCQSSQSVYKNNYLSWYQQKPGQPPKLLIYDASTLASGVPSRFSGSGSGTDFTLTINSLEAEDAATYYCHGAYLYLGVDNAFGGGTEVVVKR
notes: From the MTA-concentrated S02 library; Target antigen is hIgA
Kd (human IgA (hIgA)): 689 nM
